Values joined by “and” are separate entries in the source; they are usually repeats but may differ in a detail not shown here. Equal entries are not always repeated. Ends that are not written are not given here.
B1: FITC-labeled proIGF2_(25-120) (domain or fragment)
chain: AYGPGETLSGGELVDTLQFVSSDRGFYFSRPSSRANRRSRGIVEECSFRSSDLALLETYSATPAKSERDVSTSQAVLPDDFPRYPVGKFFQYDTWR
modifications: FITC (maleimide) on Cys70
B2: M86C Grp94 (natural protein, mouse, UniProt P08113 72-765, looked up)
chain: KSEKFAFQAEVNRMCKLIINSLYKNKEIFLRELISNASDALDKIRLISLTDENALAGNEELTVKIKCDKEKNLLHVTDTGVGMTREELVKNLGTIAKSGTSEFLNKMTEAQEDGQSTSELIGQFGVGFYSAFLVADKVIVTSKHNNDTQHIWESDSNEFSVIADPRGNTLGRGTTITLVLKEEASDYLELDTIKNLVRKYSQFINFPIYVWSSKTTVWDWELMNDIKPIWQRPSKEVEEDEYKAFYKSFSKESDDPMAYIHFTAEGEVTFKSILFVPTSAPRGLFDEYGSKKSDYIKLYVRRVFITDDFHDMMPKYLNFVKGVVDSDDLPLNVSRETLQQHKLLKVIRKKLVRKTLDMIKKIADEKYNDTFWKEFGTNIKLGVIEDHSNRTRLAKLLRFQSSHHSTDITSLDQYVERMKEKQDKIYFMAGSSRKEAESSPFVERLLKKGYEVIYLTEPVDEYCIQALPEFDGKRFQNVAKEGVKFDESEKTKESREATEKEFEPLLNWMKDKALKDKIEKAVVSQRLTESPCALVASQYGWSGNMERIMKAQAYQTGKDISTNYYASQKKTFEINPRHPLIRDMLRRIKEDEDDKTVMDLAVVLFETATLRSGYLLPDTKAYGDRIERMLRLSLNIDPEAQVEEEPEEEPED
notes: Grp94, mouse, residues 72-765 with the charged linker removed (Δ287-328), M86C for a designed disulfide bond; also called Grp94_(M86C); source: E. coli BL21, purified (Ni-NTA, anion exchange, SEC); not shown: His6, N-terminal, cleaved
B3: Grp94 MD (domain or fragment)
chain: NDIKPIWQRPSKEVEEDEYKAFYKSFSKESDDPMAYIHFTAEGEVTFKSILFVPTSAPRGLFDEYGSKKSDYIKLYVRRVFITDDFHDMMPKYLNFVKGVVDSDDLPLNVSRETLQQHKLLKVIRKKLVRKTLDMIKKIADEKYNDTFWKEFGTNIKLGVIEDHSNRTRLAKLLRFQSSHHSTDITSLDQYVERMKEKQDKIYFMAGSSRKEAESSPFVERLLKKGYEVIYLTEPVDEYCIQALPEFDGKRFQNVAKE
B4: Mouse BiP (residues 27-655) (natural protein)
chain: not shown
notes: BiP, mouse, residues 27-655; also called full-length BiP; source: E. coli BL21, purified (Ni-NTA, anion exchange, SEC); not shown: His6, N-terminal, cleaved
B5: proIGF2_(92-120) fragment (Ext. Site 1), FITC-labeled (domain or fragment, UniProt P01344 92-120, looked up)
chain: RDVC(FITC maleimide)TPPTVLPDNFPRYPVGKFFQYDTWK
notes: proIGF2 residues 92-120, cysteine mutation at Ser95; also called extended site 1; source: purified from inclusion bodies (8 M urea; ion exchange and/or Ni-NTA, denaturing)

What was measured:
[1] = target: B4; assay: fluorescence polarisation; 50 nM FITC-labeled client construct, BiP alone or Grp94 alone titrated; ADP conditions; 60 mM HEPES pH 7.0, 50 mM KCl, 5 mM MgCl2, 5% or 0% DMSO, 1 mM DTT, 0.75 mg/mL BSA, 1 mM ADP, 30 °C; single-site fit; conditions: both partners purified
BiP/Grp94 = target: T1, BiP/Grp94 (mouse, UniProt P20029 27-655; P08113 72-765, Δ287-328); assay: fluorescence polarisation; FITC-labeled client preincubated with BiP, Grp94 then added; BiP and Grp94 varied together (Fig. 6A, B; apparent) or 5 μM BiP and 5 μM Grp94 monomer (ΔP, Fig. 6C), with and without inhibitors; ADP conditions; 60 mM HEPES pH 7.0, 50 mM KCl, 5 mM MgCl2, 1 mM DTT, 0.75 mg/mL BSA, 1 mM ADP, 30 °C; conditions: both partners purified
T1 construct: BiP, mouse, residues 27-655; Grp94, mouse, residues 72-765 with the charged linker removed (Δ287-328); also called BiP and Grp94; source: E. coli BL21, each purified (Ni-NTA, anion exchange, SEC), mixed; not shown: His6, N-terminal, cleaved; copies: + 2
T1 sequence (P20029 27-655, stated change not applied, one chain of several): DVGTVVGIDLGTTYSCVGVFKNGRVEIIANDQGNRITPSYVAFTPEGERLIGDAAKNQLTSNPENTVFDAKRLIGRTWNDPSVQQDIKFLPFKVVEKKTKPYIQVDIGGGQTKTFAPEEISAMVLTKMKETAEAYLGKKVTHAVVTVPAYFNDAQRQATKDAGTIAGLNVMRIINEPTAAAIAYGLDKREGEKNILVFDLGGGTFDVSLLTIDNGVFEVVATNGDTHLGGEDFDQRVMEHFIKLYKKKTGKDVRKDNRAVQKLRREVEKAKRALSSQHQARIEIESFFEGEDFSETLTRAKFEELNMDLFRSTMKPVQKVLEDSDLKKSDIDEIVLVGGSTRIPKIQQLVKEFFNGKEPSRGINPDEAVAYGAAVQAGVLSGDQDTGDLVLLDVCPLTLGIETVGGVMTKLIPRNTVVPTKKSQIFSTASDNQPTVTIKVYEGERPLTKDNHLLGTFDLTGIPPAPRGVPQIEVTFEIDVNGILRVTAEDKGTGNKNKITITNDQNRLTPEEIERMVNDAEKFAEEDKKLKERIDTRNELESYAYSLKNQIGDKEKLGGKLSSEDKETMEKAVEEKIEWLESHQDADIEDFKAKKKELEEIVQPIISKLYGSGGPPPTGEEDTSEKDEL

[2] = target: the molecule itself; assay: cross-linking; 1 μM M86C Grp94 dimer, 50 mM KCl, 50 mM Tris pH 8, 4% DMSO, with or without 5 μM BiP NBD and 50 μM inhibitor; disulfide formed with 10 mM oxidized glutathione, 25 °C, 2 h; SDS-PAGE
[3] = target: T2, FITC-labeled BiP_(D187A) NBD (mouse, FITC on Cys27 (D27C)); assay: fluorescence polarisation; 50 nM FITC-labeled BiP NBD constructs, Grp94 or Grp94 MD titrated; 25 mM Tris pH 7.5, 50 mM KCl, 1 mM ADP (hexokinase-treated), 1 mM DTT; single-site binding fit; conditions: both partners purified
T2 construct: interface II mutant; also called FITC-D187A NBD; source: E. coli BL21, purified

FITC-labeled BiP NBD = target: T3, FITC-labeled BiP NBD (mouse, FITC on Cys27 (D27C)); assay: as above; conditions: both partners purified
T3 construct: also called FITC-NBD; D27C BiP; source: E. coli BL21, purified

[4] = target: T4, Grp94 (residues 72-765) with the charged-linker removed (Δ287-328) (mouse, UniProt P08113 72-765, Δ287-328); assay: fluorescence polarisation; FITC-labeled client preincubated with BiP, Grp94 then added; BiP and Grp94 varied together (Fig. 6A, B; apparent) or 5 μM BiP and 5 μM Grp94 monomer (ΔP, Fig. 6C), with and without inhibitors; ADP conditions; 60 mM HEPES pH 7.0, 50 mM KCl, 5 mM MgCl2, 1 mM DTT, 0.75 mg/mL BSA, 1 mM ADP, 30 °C; conditions: both partners purified
T4 construct: Grp94, mouse, residues 72-765 with the charged linker removed (Δ287-328); also called wild-type Grp94; source: E. coli BL21, purified (Ni-NTA, anion exchange, SEC); not shown: His6, N-terminal, cleaved

B1
Kd [1]: 1500 nM and 2500 nM | Kd (BiP/Grp94): 1100 ± 200 nM

B2
binding result [2]: binds

B3
Kd [3]: 6.5 ± 0.7 µM | Kd (FITC-labeled BiP NBD): 5.8 ± 1.2 µM

B4
binding result [4]: binds

B5
Kd [1]: 1900 ± 500 nM

Source: article PMC12000397, “Mechanism of client loading from BiP to Grp94 and its disruption by select inhibitors” (Nature Communications, 2025)
